Six molecules from US20260167699A1 (Chugai, published 2026) can be followed below.

Holding throughout (assay): SPR, vs GpH7-A5/GpH7-B3/GpL16-k0 =100
(Surface plasmon resonance follows binding to a sensor surface in real time, without labels.)

The target in experiment [1] is T1, FcγRIIIa extracellular domain, His-tagged (human, UniProt P08637 17-208).
T1 construct: extracellular domain; also called 3a

Experiment [2] deals with T2, FcγRIa extracellular domain, His-tagged (human, UniProt P12314 16-292).
T2 construct: extracellular domain; also called 1a
T2 sequence (P12314 other isoform, or with tags, fused parts or gaps): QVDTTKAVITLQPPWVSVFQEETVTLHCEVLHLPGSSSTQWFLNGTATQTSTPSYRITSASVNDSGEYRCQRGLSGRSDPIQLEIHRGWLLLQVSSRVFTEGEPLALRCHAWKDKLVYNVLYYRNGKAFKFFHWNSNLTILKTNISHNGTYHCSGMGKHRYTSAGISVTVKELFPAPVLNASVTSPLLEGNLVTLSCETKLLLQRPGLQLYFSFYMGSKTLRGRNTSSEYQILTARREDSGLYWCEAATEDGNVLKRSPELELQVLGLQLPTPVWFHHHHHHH

For experiment [3], the target named is T3, FcγRIIb extracellular domain, His-tagged (human, UniProt P31994 43-217).
T3 construct: extracellular domain; also called 2b
T3 sequence: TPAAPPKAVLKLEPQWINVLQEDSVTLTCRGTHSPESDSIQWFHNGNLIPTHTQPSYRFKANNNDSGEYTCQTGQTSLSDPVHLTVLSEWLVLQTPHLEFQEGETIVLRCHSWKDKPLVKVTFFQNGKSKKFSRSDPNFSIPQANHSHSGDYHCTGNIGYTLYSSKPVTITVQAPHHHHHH

Experiment [4] has as its target T4, FcγRIIa(R) extracellular domain, His-tagged (human, UniProt P12318 34-217).
T4 construct: extracellular domain; also called 2aR
T4 sequence: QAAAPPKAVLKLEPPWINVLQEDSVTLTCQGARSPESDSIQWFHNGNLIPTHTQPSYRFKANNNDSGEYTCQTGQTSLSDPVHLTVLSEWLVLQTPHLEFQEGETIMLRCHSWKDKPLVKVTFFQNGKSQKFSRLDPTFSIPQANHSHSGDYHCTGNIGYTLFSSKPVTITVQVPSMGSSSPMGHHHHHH

For experiment [5], the target named is T5, FcγRIIa(H) extracellular domain, His-tagged (human, UniProt P12318 34-217).
T5 construct: extracellular domain; also called 2aH
T5 sequence: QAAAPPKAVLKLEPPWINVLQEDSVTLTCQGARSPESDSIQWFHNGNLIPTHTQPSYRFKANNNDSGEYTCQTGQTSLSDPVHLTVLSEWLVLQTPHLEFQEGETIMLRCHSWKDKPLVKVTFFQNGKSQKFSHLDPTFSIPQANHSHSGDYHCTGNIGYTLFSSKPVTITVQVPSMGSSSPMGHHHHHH

T1 sequence (P08637 other isoform, or with tags, fused parts or gaps): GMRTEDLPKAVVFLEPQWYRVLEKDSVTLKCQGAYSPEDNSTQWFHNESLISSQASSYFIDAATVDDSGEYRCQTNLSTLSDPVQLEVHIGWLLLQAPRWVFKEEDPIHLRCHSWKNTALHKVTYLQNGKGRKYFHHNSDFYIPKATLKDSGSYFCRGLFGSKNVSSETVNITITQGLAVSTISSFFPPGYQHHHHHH

B1: GpH7-A5/GpH7-B3 variant S239_19Q/GpL16-k0 (antibody, human IgG1, kappa)
heavy 1: not shown
heavy 2: not shown
light: DIVMTQSPLSLPVTPGEPASISCQASESLVHSNRNTYLHWYLQKPGQSPQLLIYKVSNRFSGVPDRFSGSGSGTDFTLKISRVEAEDVGVYYCSQNTHVPPTFGQGTKVEIERTVAAPSVFIFPPSDEQLKSGTASVVCLLNNFYPREAKVQWKVDNALQSGNSQESVTEQDSKDSTYSLSSTLTLSKADYEKHKVYACEVTHQGLSSPVTKSFNRGEC
Consider B1, for which the “He/Con 3a” value in experiment [1] is 53.8 % of control. In addition, the “He/Con 1a” value in experiment [2] was 104 % of control. Also, the “He/Con 2b” value in experiment [3] is 87.3 % of control. Also, the “He/Con 2aR” value in experiment [4] is 79.8 % of control. Besides, the “He/Con 2aH” value in experiment [5] was 80 % of control.

B2: GpH7-A5/GpH7-B3 variant S267_10E/GpL16-k0 (antibody, human IgG1, kappa)
heavy 1: not shown
heavy 2: not shown
light: DIVMTQSPLSLPVTPGEPASISCQASESLVHSNRNTYLHWYLQKPGQSPQLLIYKVSNRFSGVPDRFSGSGSGTDFTLKISRVEAEDVGVYYCSQNTHVPPTFGQGTKVEIERTVAAPSVFIFPPSDEQLKSGTASVVCLLNNFYPREAKVQWKVDNALQSGNSQESVTEQDSKDSTYSLSSTLTLSKADYEKHKVYACEVTHQGLSSPVTKSFNRGEC
B2: the “He/Con 3a” value in experiment [1] was 90.9 % of control. The “He/Con 1a” value in experiment [2] was 102 % of control. The “He/Con 2b” value in experiment [3] was 398 % of control. Further, the “He/Con 2aR” value in experiment [4] was 188 % of control. In experiment [5], the “He/Con 2aH” value is 103 % of control.

B3: GpH7-A5/GpH7-B3 variant S267_01G/GpL16-k0 (antibody, human IgG1, kappa)
heavy 1: not shown
heavy 2: not shown
light: DIVMTQSPLSLPVTPGEPASISCQASESLVHSNRNTYLHWYLQKPGQSPQLLIYKVSNRFSGVPDRFSGSGSGTDFTLKISRVEAEDVGVYYCSQNTHVPPTFGQGTKVEIERTVAAPSVFIFPPSDEQLKSGTASVVCLLNNFYPREAKVQWKVDNALQSGNSQESVTEQDSKDSTYSLSSTLTLSKADYEKHKVYACEVTHQGLSSPVTKSFNRGEC
In the case of B3, the “He/Con 3a” value in experiment [1] was 53.3 % of control. Moreover, the “He/Con 1a” value in experiment [2] is 99.9 % of control. In addition, in experiment [3], the “He/Con 2b” value is 110 % of control. For the same molecule, the “He/Con 2aR” value in experiment [4] was 121 % of control. Besides, the “He/Con 2aH” value in experiment [5] was 72.1 % of control.

B4: GpH7-A5/GpH7-B3 variant S267_09D/GpL16-k0 (antibody, human IgG1, kappa)
heavy 1: not shown
heavy 2: not shown
light: DIVMTQSPLSLPVTPGEPASISCQASESLVHSNRNTYLHWYLQKPGQSPQLLIYKVSNRFSGVPDRFSGSGSGTDFTLKISRVEAEDVGVYYCSQNTHVPPTFGQGTKVEIERTVAAPSVFIFPPSDEQLKSGTASVVCLLNNFYPREAKVQWKVDNALQSGNSQESVTEQDSKDSTYSLSSTLTLSKADYEKHKVYACEVTHQGLSSPVTKSFNRGEC
For the molecule B4, the “He/Con 3a” value in experiment [1] was 179 % of control. For the same molecule, the “He/Con 1a” value in experiment [2] was 106 % of control. Besides, the “He/Con 2b” value in experiment [3] is 326 % of control. Further, the “He/Con 2aR” value in experiment [4] is 186 % of control. The “He/Con 2aH” value in experiment [5] was 107 % of control.

B5: GpH7-A5/GpH7-B3 variant S267_02A/GpL16-k0 (antibody, human IgG1, kappa)
heavy 1: not shown
heavy 2: not shown
light: DIVMTQSPLSLPVTPGEPASISCQASESLVHSNRNTYLHWYLQKPGQSPQLLIYKVSNRFSGVPDRFSGSGSGTDFTLKISRVEAEDVGVYYCSQNTHVPPTFGQGTKVEIERTVAAPSVFIFPPSDEQLKSGTASVVCLLNNFYPREAKVQWKVDNALQSGNSQESVTEQDSKDSTYSLSSTLTLSKADYEKHKVYACEVTHQGLSSPVTKSFNRGEC
Turning to B5, the “He/Con 3a” value in experiment [1] was 149 % of control. Also, the “He/Con 1a” value in experiment [2] is 105 % of control. The “He/Con 2b” value in experiment [3] is 256 % of control. The “He/Con 2aR” value in experiment [4] was 167 % of control. The “He/Con 2aH” value in experiment [5] was 121 % of control.

B6: GpH7-A5/GpH7-B3 variant S267_19Q/GpL16-k0 (antibody, human IgG1, kappa)
heavy 1: not shown
heavy 2: not shown
light: DIVMTQSPLSLPVTPGEPASISCQASESLVHSNRNTYLHWYLQKPGQSPQLLIYKVSNRFSGVPDRFSGSGSGTDFTLKISRVEAEDVGVYYCSQNTHVPPTFGQGTKVEIERTVAAPSVFIFPPSDEQLKSGTASVVCLLNNFYPREAKVQWKVDNALQSGNSQESVTEQDSKDSTYSLSSTLTLSKADYEKHKVYACEVTHQGLSSPVTKSFNRGEC
As for B6, the “He/Con 3a” value in experiment [1] was 64.3 % of control. In addition, the “He/Con 1a” value in experiment [2] was 99.2 % of control. Moreover, the “He/Con 2b” value in experiment [3] is 228 % of control. Besides, in experiment [4], the “He/Con 2aR” value was 145 % of control. Further, the “He/Con 2aH” value in experiment [5] was 61.9 % of control.
